Patent US20150225704A1 (UNIVERSITY OF BRITISH COLUMBIA, published 2015)
Each block holds one binder with its values, some of them ahead of it.

B5: GFP-JNK3 (c-jun N-terminal kinase 3) expressed in HEK293 cells (enzyme, UniProt P53779 1-464, looked up)
chain: MSLHFLYYCSEPTLDVKIAFCQGFDKQVDVSYIAKHYNMSKSKVDNQFYSVEVGDSTFTVLKRYQNLKPIGSGAQGIVCAAYDAVLDRNVAIKKLSRPFQNQTHAKRAYRELVLMKCVNHKNIISLLNVFTPQKTLEEFQDVYLVMELMDANLCQVIQMELDHERMSYLLYQMLCGIKHLHSAGIIHRDLKPSNIVVKSDCTLKILDFGLARTAGTSFMMTPYVVTRYYRAPEVILGMGYKENVDIWSVGCIMGEMVRHKILFPGRDYIDQWNKVIEQLGTPCPEFMKKLQPTVRNYVENRPKYAGLTFPKLFPDSLFPADSEHNKLKASQARDLLSKMLVIDPAKRISVDDALQHPYINVWYDPAEVEAPPPQIYDKQLDEREHTIEEWKELIYKEVMNSEEKTKNGVVKGQPSPSGAAVNSSESLPPSSSVNDISSMSTDQTLASDTDSSLEASAGPLGCCR
notes: not shown: GFP tag and linker of the gifted construct (Song et al. 2006)

Experiments:
[1] = biological target: T1, endogenous zD17 of rat cortical neuronal cultures and rat brain (rat, UniProt E9PTT0 1-622); experiment: co-immunoprecipitation, neuronal cultures treated with glutamate
T1 construct: Co-immunoprecipitated from lysates of Wistar rat cortical cultures or Sprague-Dawley rat brain
T1 sequence (E9PTT0 whole entry): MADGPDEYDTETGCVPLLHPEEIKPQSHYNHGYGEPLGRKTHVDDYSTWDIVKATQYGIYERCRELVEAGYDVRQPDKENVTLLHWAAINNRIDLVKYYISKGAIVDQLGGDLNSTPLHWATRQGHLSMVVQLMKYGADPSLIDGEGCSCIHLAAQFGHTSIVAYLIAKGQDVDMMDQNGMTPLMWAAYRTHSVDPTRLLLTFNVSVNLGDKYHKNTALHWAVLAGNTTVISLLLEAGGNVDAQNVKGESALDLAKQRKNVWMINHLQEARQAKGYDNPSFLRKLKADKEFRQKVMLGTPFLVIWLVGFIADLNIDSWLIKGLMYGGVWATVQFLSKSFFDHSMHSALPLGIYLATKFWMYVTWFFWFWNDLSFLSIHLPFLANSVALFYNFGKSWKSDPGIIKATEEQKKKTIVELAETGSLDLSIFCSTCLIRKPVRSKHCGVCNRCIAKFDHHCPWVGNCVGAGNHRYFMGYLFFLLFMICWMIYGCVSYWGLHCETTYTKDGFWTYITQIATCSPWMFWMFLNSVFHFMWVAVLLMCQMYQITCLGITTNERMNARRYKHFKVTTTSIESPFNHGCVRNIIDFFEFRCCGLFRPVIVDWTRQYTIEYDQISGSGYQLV

[2] = biological target: B5; experiment: co-immunoprecipitation, HEK293 cells
Procedure: (§1) For co-immunoprecipitation, cultured cells were washed with ice-cold PBS followed by incubation with 0.5 ml Gentle Lysis Buffer (GLB) containing 25 mM Tris-HCl (pH 7.4), 2 mM EDTA, 1 mM EGTA, 10 mM NaCl, 0.5% Triton X-100 and 10% Glycerol supplemented with the Complete Protease Inhibitor Tablets (Roche Applied Science™, Indianapolis, Ind., USA) and 1 mM PMSF. Total protein concentration was determined with the BioRad™ Protein Assay kit. Lysates were first precleaned by incubating with Protein A-Sepharose beads (Roche Applied Science™) for 1 h at 4° C., followed by incubation with indicated antibodies (>16 h at 4° C.) and protein A Sepharose bead (2 h at 4° C.). Lysates of rat brain tissues were precleaned with IgG and protein A-beads. […] The relative intensities of the bands on immunoblots were analyzed and quantified using Image J™ (NIH).

[3] = biological target: T1, endogenous zD17 of rat cortical …; experiment: co-immunoprecipitation, neuronal cultures treated with TNF-α (50 ng/ml, 6 h)
Procedure: as §1

[4] = biological target: T1, endogenous zD17 of rat cortical …; experiment: co-immunoprecipitation, neuronal cultures treated with IL-1β (10 ng/ml, 16 h)
Procedure: as §1

[5] = biological target: T1, endogenous zD17 of rat cortical …; experiment: co-immunoprecipitation, neuronal cultures treated with NMDA
FLAG-MKK7 wt = biological target: T2, FLAG-MKK7 wt (UniProt O14733 1-419, limits assumed); experiment: co-immunoprecipitation, with against without zD17
T2 construct: Bought from Addgene; also called MKK7 wildtype; not shown: FLAG tag
T2 sequence (looked up): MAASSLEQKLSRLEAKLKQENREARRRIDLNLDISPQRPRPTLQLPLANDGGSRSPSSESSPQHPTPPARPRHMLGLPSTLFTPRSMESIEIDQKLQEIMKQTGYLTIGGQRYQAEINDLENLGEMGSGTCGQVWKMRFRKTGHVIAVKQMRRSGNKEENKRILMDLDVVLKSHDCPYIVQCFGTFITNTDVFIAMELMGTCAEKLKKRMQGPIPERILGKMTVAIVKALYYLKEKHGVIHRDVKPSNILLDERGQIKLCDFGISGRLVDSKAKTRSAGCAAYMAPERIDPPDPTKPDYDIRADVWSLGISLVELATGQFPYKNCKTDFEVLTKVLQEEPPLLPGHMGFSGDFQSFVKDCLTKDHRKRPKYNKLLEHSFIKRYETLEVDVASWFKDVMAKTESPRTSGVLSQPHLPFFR

[6] = biological target: T3, myc-tagged full-length palmitoyl acyl transferase zinc-finger DHHC type containing 17 (zD17) (UniProt Q8IUH5 1-632); experiment: co-immunoprecipitation, HEK293 cells
T3 construct: range 1-632; Expressed in HEK293 cells (myc-zD17) or purified from E. coli as GST-myc-zD17 and freed of GST with thrombin; also called myc-zD17; zD17 wildtype
T3 sequence (Q8IUH5 whole entry): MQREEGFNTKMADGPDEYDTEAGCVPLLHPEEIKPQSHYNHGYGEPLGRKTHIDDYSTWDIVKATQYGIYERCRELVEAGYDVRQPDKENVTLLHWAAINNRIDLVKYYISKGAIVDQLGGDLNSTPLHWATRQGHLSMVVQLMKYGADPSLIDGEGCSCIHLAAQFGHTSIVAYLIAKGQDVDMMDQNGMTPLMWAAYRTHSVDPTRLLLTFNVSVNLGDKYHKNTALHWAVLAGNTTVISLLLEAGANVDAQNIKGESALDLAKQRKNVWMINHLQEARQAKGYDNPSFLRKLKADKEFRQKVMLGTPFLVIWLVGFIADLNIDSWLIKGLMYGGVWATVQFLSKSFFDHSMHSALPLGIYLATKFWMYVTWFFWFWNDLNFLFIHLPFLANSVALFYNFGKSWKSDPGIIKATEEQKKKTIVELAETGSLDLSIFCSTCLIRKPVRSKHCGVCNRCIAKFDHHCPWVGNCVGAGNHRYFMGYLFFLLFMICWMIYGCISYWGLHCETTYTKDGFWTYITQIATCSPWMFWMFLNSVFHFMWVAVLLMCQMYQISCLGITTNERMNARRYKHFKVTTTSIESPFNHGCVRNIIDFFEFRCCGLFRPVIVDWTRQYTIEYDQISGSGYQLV
Procedure: as §1

binding result [2]: no binding
B2: zD15 (palmitoyl acyl transferase) expressed in HEK293 cells (enzyme, UniProt Q96MV8 1-337, looked up)
chain: MRRGWKMALSGGLRCCRRVLSWVPVLVIVLVVLWSYYAYVFELCLVTVLSPAEKVIYLILYHAIFVFFTWTYWKSIFTLPQQPNQKFHLSYTDKERYENEERPEVQKQMLVDMAKKLPVYTRTGSGAVRFCDRCHLIKPDRCHHCSVCAMCVLKMDHHCPWVNNCIGFSNYKFFLQFLAYSVLYCLYIATTVFSYFIKYWRGELPSVRSKFHVLFLLFVACMFFVSLVILFGYHCWLVSRNKTTLEAFCTPVFTSGPEKNGFNLGFIKNIQQVFGDKKKFWLIPIGSSPGDGHSFPMRSMNESQNPLLANEETWEDNEDDNQDYPEGSSSLAVETET
notes: Immunoprecipitated like myc-zD17

binding result [2]: no binding
B3: zD20 (palmitoyl acyl transferase) expressed in HEK293 cells (enzyme, UniProt Q5W0Z9 1-365, looked up)
chain: MAPWTLWRCCQRVVGWVPVLFITFVVVWSYYAYVVELCVFTIFGNEENGKTVVYLVAFHLFFVMFVWSYWMTIFTSPASPSKEFYLSNSEKERYEKEFSQERQQEILRRAARALPIYTTSASKTIRYCEKCQLIKPDRAHHCSACDSCILKMDHHCPWVNNCVGFSNYKFFLLFLLYSLLYCLFVAATVLEYFIKFWTNELTDTRAKFHVLFLFFVSAMFFISVLSLFSYHCWLVGKNRTTIESFRAPTFSYGPDGNGFSLGCSKNWRQVFGDEKKYWLLPIFSSLGDGCSFPTRLVGMDPEQASVTNQNEYARSSGSNQPFPIKPLSESKNRLLDSESQWLENGAEEGIVKSGTNNHVTVAIEN
notes: as for B2

binding result [6]: no binding
B6: FLAG-MKK6 (enzyme, UniProt P52564 1-334, looked up)
chain: MSQSKGKKRNPGLKIPKEAFEQPQTSSTPPRDLDSKACISIGNQNFEVKADDLEPIMELGRGAYGVVEKMRHVPSGQIMAVKRIRATVNSQEQKRLLMDLDISMRTVDCPFTVTFYGALFREGDVWICMELMDTSLDKFYKQVIDKGQTIPEDILGKIAVSIVKALEHLHSKLSVIHRDVKPSNVLINALGQVKMCDFGISGYLVDSVAKTIDAGCKPYMAPERINPELNQKGYSVKSDIWSLGITMIELAILRFPYDSWGTPFQQLKQVVEEPSPQLPADKFSAEFVDFTSQCLKKNSKERPTYPELMQHPFFTLHESKGTDVASFVKLILGD
notes: Bought from Addgene; not shown: FLAG tag

The next lines start with the binder.

B1: endogenous JNK1 of rat cortical neuronal cultures (enzyme, UniProt P49185 1-411, looked up)
chain: MSRSKRDNNFYSVEIADSTFTVLKRYQNLKPIGSGAQGIVCAAYDAILERNVAIKKLSRPFQNQTHAKRAYRELVLMKCVNHKNIIGLLNVFTPQKSLEEFQDVYIVMELMDANLCQVIQMELDHERMSYLLYQMLCGIKHLHSAGIIHRDLKPSNIVVKSDCTLKILDFGLARTAGTSFMMTPYVVTRYYRAPEVILGMGYKENVDLWSVGCIMGEMVCLKILFPGRDYIDQWNKVIEQLGTPCPEFMKKLQPTVRTYVENRPKYAGYSFEKLFPDVLFPADSEHNKLKASQARDLLSKMLVIDASKRISVDEALQHPYINVWYDPSEAEAPPPKIPDKQLDEREHTIEEWKELIYKEVMDLEERTKNGVIRGQPSPLGAAVINGSQHPVSSPSVNDMSSMSTDPTLASD
fold increase of zD17 interaction compared with control [1]: 1.4 fold

B4: endogenous JNK3 of rat cortical neuronal cultures and rat brain (enzyme, UniProt P49187 1-464, looked up)
chain: MSLHFLYYCSEPTLDVKIAFCQGFDKHVDVSSVVKHYNMSKSKVDNQFYSVEVGDSTFTVLKRYQNLKPIGSGAQGIVCAAYDAVLDRNVAIKKLSRPFQNQTHAKRAYRELVLMKCVNHKNIISLLNVFTPQKTLEEFQDVYLVMELMDANLCQVIQMELDHERMSYLLYQMLCGIKHLHSAGIIHRDLKPSNIVVKSDCTLKILDFGLARTAGTSFMMTPYVVTRYYRAPEVILGMGYKENVDIWSVGCIMGEMVRHKILFPGRDYIDQWNKVIEQLGTPCPEFMKKLQPTVRNYVENRPKYAGLTFPKLFPDSLFPADSEHNKLKASQARDLLSKMLVIDPAKRISVDDALQHPYINVWYDPAEVEAPPPQIYDKQLDEREHTIEEWKELIYKEVMNSEEKTKNGVVKGQPSPSGAAVNSSESLPPSSSVNDISSMSTDQTLASDTDSSLEASAGPLGCCR
fold increase of zD17-JNK3 interaction against control [3]: 1.53 fold | fold increase of zD17-JNK3 interaction against control [4]: 1.88 fold | fold increase of zD17 interaction compared with control [1]: 2.6 fold | fold increase of zD17 interaction compared with control [5]: 2.5 fold

Binder: B5
fold enhancement of the JNK3-MKK7 association in the presence of zD17 (FLAG-MKK7 wt): 2.41 fold
